Earlier results in article PMC8481289.

Biological target: UFC1 (Homo sapiens) (UniProt Q9Y3C8)
Sequence (Q9Y3C8 whole entry): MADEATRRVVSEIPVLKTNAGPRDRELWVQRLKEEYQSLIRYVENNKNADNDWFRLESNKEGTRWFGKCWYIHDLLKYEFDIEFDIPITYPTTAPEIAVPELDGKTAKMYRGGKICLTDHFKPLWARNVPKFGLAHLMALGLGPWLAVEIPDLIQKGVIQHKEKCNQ

Chain of UBA5 (Q9GZZ9 whole entry): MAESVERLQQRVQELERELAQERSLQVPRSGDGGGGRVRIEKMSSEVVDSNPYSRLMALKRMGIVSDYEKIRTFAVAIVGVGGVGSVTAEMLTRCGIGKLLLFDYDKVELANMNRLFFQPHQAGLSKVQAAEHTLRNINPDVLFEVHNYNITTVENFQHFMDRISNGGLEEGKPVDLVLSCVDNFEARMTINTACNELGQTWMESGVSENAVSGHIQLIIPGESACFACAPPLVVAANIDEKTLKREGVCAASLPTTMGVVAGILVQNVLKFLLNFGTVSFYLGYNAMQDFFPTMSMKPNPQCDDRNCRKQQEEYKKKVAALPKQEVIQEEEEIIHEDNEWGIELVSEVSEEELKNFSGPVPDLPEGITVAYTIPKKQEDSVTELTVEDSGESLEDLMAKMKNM

UBA5 (from UniProt Q9GZZ9)
Kd: 1000 nM
